Results: patent US20070065446, “Anti-bambi antibody and diagnostic or remedy for colon cancer and liver cancer” (SCIMEDIA LTD., published 2007)

B1: TBE4 mutant (dsDNA)
DNA 1: CTGGAAATATAGAAAGCGGGCAGAAC
DNA 2: GTTCTGCCCGCTTTCTATATTTCCAG
B2: TBE2 mutant (dsDNA)
DNA 1: CTCTGTGTCTAGTTAAATGTATCTCTG
DNA 2: CAGAGATACATTTAACTAGACACAGAG
B3: TBE1 mutant (dsDNA)
DNA 1: GCTGCAGAGGATTGATTAGCGGTAG
DNA 2: CTACCGCTAATCAATCCTCTGCAGC
B4: TBE3 mutant (dsDNA)
DNA 1: CTCTAAGTGTAGTTATATCTCTGAATG
DNA 2: CATTCAGAGATATAACTACACTTAGAG
B5: TBE5 mutant (dsDNA)
DNA 1: CTAAAAGTTCATGCAGTTAAATTTGGG
DNA 2: CCCAAATTTAACTGCATGAACTTTTAG
B6: TBE4 (dsDNA)
DNA 1: CTGGAAATATCAAAGGCGGGCAGAAC
DNA 2: GTTCTGCCCGCCTTTGATATTTCCAG
B7: TBE1 (dsDNA)
DNA 1: GCTGCAGAGGCTTTGTTAGCGGTAG
DNA 2: CTACCGCTAACAAAGCCTCTGCAGC
B8: TBE3 (dsDNA)
DNA 1: CTCTAAGTGTCTTTGTATCTCTGAATG
DNA 2: CATTCAGAGATACAAAGACACTTAGAG
B9: TBE5 (dsDNA)
DNA 1: CTAAAAGTTCATGCCTTTGAATTTGGG
DNA 2: CCCAAATTCAAAGGCATGAACTTTTAG
B10: TBE2 (dsDNA)
DNA 1: CTCTGTGTCTCTTTGAATGTATCTCTG
DNA 2: CAGAGATACATTCAAAGAGACACAGAG

The binders below were run against T1, TCF4 (TCF7L2) residues 265-496, GST fusion (Homo sapiens, UniProt Q9NQB0-8 Q9NQB0-8:265-496) (assay: competition; mutant unlabeled competitor does not compete in EMSA). Conditions: tags: N-terminal GST (pGEX-5X-1), E. coli DH5alpha.
T1 sequence (Q9NQB0 288-519, one chain of several): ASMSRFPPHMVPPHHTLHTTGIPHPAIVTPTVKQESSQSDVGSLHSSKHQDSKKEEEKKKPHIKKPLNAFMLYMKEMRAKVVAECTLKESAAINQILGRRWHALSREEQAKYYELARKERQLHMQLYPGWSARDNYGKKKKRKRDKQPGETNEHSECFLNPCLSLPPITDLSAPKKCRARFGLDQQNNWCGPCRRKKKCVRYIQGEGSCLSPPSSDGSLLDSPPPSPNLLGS
Description: (§1) Five TCF-4 binding sequences on intron 1 were synthesized (TBE 1-5) and radioactively labeled, and shift assay was used to investigate whether they bound with GST-TCF.
The oligonucleotide used in preparing the mutant hBAMBI-luciferase construct was used as the mutant competitive molecule.

| Binder | binding result |
| --- | --- |
| B1 | no binding |
| B2 | no binding |
| B3 | no binding |
| B4 | no binding |
| B5 | no binding |

These binders were tested against T1, TCF4 (TCF7L2) residues 265-496, GST … (assay: EMSA; competed by excess unlabeled TBE). Conditions: tags: N-terminal GST (pGEX-5X-1), E. coli DH5alpha; label: radioactive.
Description: as §1

| Binder | binding result |
| --- | --- |
| B6 | binds |
| B7 | binds |
| B8 | binds |
| B9 | binds |
| B10 | binds |

What follows are binders tested against GST (UniProt P08515 P08515:1-218) (assay: EMSA; GST control). Conditions: tags: pGEX-5X-1 (Pharmacia), E. coli DH5alpha; label: radioactive.
Sequence of GST (P08515 whole entry, one chain of several): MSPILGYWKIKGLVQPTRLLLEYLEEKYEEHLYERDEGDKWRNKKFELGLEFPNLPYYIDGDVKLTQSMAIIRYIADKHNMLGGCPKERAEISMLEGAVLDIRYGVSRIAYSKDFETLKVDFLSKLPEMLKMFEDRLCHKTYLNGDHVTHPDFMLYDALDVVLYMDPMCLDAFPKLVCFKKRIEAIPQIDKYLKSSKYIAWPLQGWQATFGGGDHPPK
Description: as §1

| Binder | binding result |
| --- | --- |
| B6 | no binding |
| B7 | no binding |
| B8 | no binding |
| B9 | no binding |
| B10 | no binding |
